In the Human Domainome abundance scans (Beltran et al. 2025):
± gives the uncertainty stated by the source.

B1: Intersectin-1, residues 909 to 971; numbered along this chain, Q15811 (parent)
chain: QGEKVEGLQAQALYPWRAKKDNHLNFNKNDVITVLEQQDMWWFGEVQGQKGWFPKSYVKLISG

Variants of: B1
Test: abundance fitness (aPCA) (normalised: wild type 0, dead -1); higher = more abundant; growth selection in yeast, the domain comes from the species named
Conditions: Homo sapiens

Variant	abundance fitness
K59T	-0.31 ± 0.13
K59I	-0.227 ± 0.21
Q38G	0.026 ± 0.079
Q38A	-0.463 ± 0.2
Q38V	-0.302 ± 0.12
Q38R	0.029 ± 0.12
Q38E	0.008 ± 0.16
Q38C	-0.04 ± 0.18
L13D	-0.158 ± 0.29
L13E	-0.267 ± 0.26
L13Q	-0.2 ± 0.28
L13M	-0.204 ± 0.29
L13A	-0.271 ± 0.22
L13N	-0.024 ± 0.42
Q49V	-0.065 ± 0.098
Q49S	-0.232 ± 0.14
Q49M	-0.052 ± 0.21
Q49I	-0.208 ± 0.3
Q49H	0.045 ± 0.22
W52F	-0.232 ± 0.4
W52K	-0.375 ± 0.45
W52S	-1.15 ± 0.41
D39S	-0.127 ± 0.18
D39Q	-0.328 ± 0.16

Variant	abundance fitness
D39M	-0.221 ± 0.18
D39R	-0.182 ± 0.072
D39E	-0.071 ± 0.15
D39K	-0.268 ± 0.13
D39C	-0.262 ± 0.24
D39N	-0.215 ± 0.15
Q1S	-0.334 ± 0.36
Q1C	-0.06 ± 0.19
Q1L	-0.164 ± 0.17
Q1G	-0.083 ± 0.12
V58D	-0.793 ± 0.47
V58R	-1.04 ± 0.34
V58L	-0.812 ± 0.16
V58A	-0.189 ± 0.088
V58I	-0.451 ± 0.17
V58C	-0.169 ± 0.14
L8A	0.043 ± 0.092
L8G	-0.048 ± 0.066
L8I	-0.136 ± 0.31
L8S	-0.117 ± 0.11
L8D	-0.236 ± 0.13
L8P	-0.345 ± 0.2
L8H	-0.361 ± 0.3
R17P	-0.293 ± 0.25

Variant	abundance fitness
R17D	-0.163 ± 0.23
R17H	-0.108 ± 0.28
R17K	-0.359 ± 0.36
R17V	0.061 ± 0.096
R17A	-0.19 ± 0.09
K19V	0.021 ± 0.043
Q47R	-0.151 ± 0.088
Q47W	-0.125 ± 0.17
Q47T	-0.014 ± 0.14
Q47Y	-0.113 ± 0.31
Q47S	-0.167 ± 0.1
Q47D	-0.546 ± 0.2
A12K	-0.773 ± 0.48
A12G	-0.404 ± 0.07
A12C	-0.474 ± 0.21
N27K	-0.191 ± 0.17
N27S	-0.408 ± 0.43
N27E	0.054 ± 0.45
N27Q	-0.143 ± 0.24
N27R	-0.016 ± 0.15
V5I	-0.151 ± 0.1
V5H	-0.657 ± 0.31
V5S	-0.115 ± 0.2
V5M	-0.073 ± 0.49

Variant	abundance fitness
V5E	-0.126 ± 0.17
G63M	0.011 ± 0.22
G63W	-0.276 ± 0.15
G63L	-0.077 ± 0.32
G63P	-0.01 ± 0.19
G63A	-0.058 ± 0.1
G48S	-0.149 ± 0.097
G48M	-0.226 ± 0.17
G48H	-0.381 ± 0.49
G48C	-0.361 ± 0.15
G48L	-0.259 ± 0.1
G48R	-0.224 ± 0.094
G48V	-0.584 ± 0.12
Q37M	0.323 ± 0.2
Q37F	-0.078 ± 0.46
Q37C	-0.127 ± 0.17
Q37G	-0.085 ± 0.1
Q37W	-0.162 ± 0.16
L35M	-0.019 ± 0.34
L35A	-0.612 ± 0.36
L35K	0.168 ± 0.26
L35W	0.111 ± 0.19
L35R	-0.173 ± 0.14
D30L	-0.751 ± 0.042

Variant	abundance fitness
D30I	-0.677 ± 0.054
D30M	-0.252 ± 0.051
D30E	-0.089 ± 0.04
D30K	-0.783 ± 0.086
D30Q	-0.036 ± 0.048
D30N	-0.396 ± 0.049
F26E	-1.07 ± 0.39
E36W	-0.117 ± 0.12
E36V	-0.044 ± 0.2
E36T	-0.149 ± 0.18
E36L	-0.094 ± 0.17
E36R	-0.147 ± 0.12
N25S	-0.074 ± 0.14
N25P	-0.451 ± 0.37
N25E	-0.08 ± 0.13
N25K	0.115 ± 0.31
N25M	-0.087 ± 0.21
N25G	-0.081 ± 0.052
T33D	0.086 ± 0.15
T33L	-0.158 ± 0.16
T33N	-0.233 ± 0.16
T33E	-0.089 ± 0.078
T33K	-0.1 ± 0.099
T33F	-0.242 ± 0.22

Variant	abundance fitness
T33R	-0.034 ± 0.043
W41Q	-0.316 ± 0.15
W41V	-0.319 ± 0.14
W41G	-0.78 ± 0.28
W41D	-0.245 ± 0.13
W41F	-0.238 ± 0.18
W41Y	-0.053 ± 0.18
W41S	-0.274 ± 0.085
G7R	-0.227 ± 0.4
M40I	0.034 ± 0.17
M40A	-0.083 ± 0.09
M40Q	0.052 ± 0.34
M40K	0.144 ± 0.22
K4Q	-0.39 ± 0.16
K4P	-0.29 ± 0.27
K4C	0.207 ± 0.47
K4Y	-0.039 ± 0.23
K4A	-0.159 ± 0.12
F43H	0.168 ± 0.47
F43N	-0.427 ± 0.25
F43P	-0.808 ± 0.17
F43Y	-0.119 ± 0.29
F43W	-0.061 ± 0.14
F43R	-0.328 ± 0.086

Variant	abundance fitness
F43T	-0.811 ± 0.47
F43D	-0.997 ± 0.34
F43L	-0.019 ± 0.09
N29R	-0.172 ± 0.075
N29G	-0.031 ± 0.067
N29E	-0.024 ± 0.18
N29W	-0.345 ± 0.1
Y14P	-0.585 ± 0.44
Y14S	-0.233 ± 0.11
Y14V	0.011 ± 0.086
Y14G	-0.159 ± 0.072
Y14K	-0.098 ± 0.15
Y14I	-0.058 ± 0.16
Y14D	-0.104 ± 0.17
Y14T	-0.191 ± 0.14
Y14C	-0.511 ± 0.14
Y14L	0.009 ± 0.097
L60C	0.029 ± 0.11
L60Q	0.049 ± 0.12
L60I	-0.258 ± 0.25
L60V	-0.06 ± 0.1
L60G	-0.18 ± 0.056
L60F	-0.536 ± 0.17
